This assay addresses T1, purified PSD (Homo sapiens, UniProt Q9UG56).
T1 construct: Purified recombinant protein (full length) of human phosphatidylserine decarboxylase (PSD); His tag (N); purchased Acris-OriGene; host or cells: E. coli
T1 sequence (Q9UG56 53-409): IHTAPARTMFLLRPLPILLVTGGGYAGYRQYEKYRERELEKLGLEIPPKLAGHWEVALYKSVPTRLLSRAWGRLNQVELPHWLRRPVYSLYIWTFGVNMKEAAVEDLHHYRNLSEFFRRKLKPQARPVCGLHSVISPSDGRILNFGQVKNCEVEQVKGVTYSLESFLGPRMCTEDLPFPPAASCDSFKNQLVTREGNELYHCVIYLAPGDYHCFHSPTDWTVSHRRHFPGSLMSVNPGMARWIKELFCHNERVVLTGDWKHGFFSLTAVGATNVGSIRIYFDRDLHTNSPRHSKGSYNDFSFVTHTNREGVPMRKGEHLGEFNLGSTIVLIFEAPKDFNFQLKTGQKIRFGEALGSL
The experiment in a line: PSD activity, DSB‐3 method. The assay is classed as biochemical. Conditions: PS 50 μM, 45 min, 30 °C, n = 4, read-out: IC50, SMAC‐inhibiting PSD activity. The procedure: PE content in the lipid samples was measured as described previously. Briefly, solvent was evaporated from the lipid samples under nitrogen gas, and samples were resuspended in 0.8 mM Triton X‐100. Sample aliquots were added to 96‐well plates containing (50 µL) reaction mixture (80 mM NaCl, 2 mM K2HPO4, pH 7.4) and of borate buffer (12.5 µL) (100 mM boric acid, 75 mM NaCl, 25 mM sodium tetraborate, pH 9). After mixing, 12.5 µL of 100 µM DSB‐3, in 10 mM K2HPO4 (pH 7.4), was then added and incubated for 2 h in the dark with shaking (100 r.p.m.). Fluorescence was measured using excitation λex = 403 nm and emission λem = 508 nm. A calibration curve was obtained using PE (Biovision) as a standard.
To determine PSD activity, purified enzyme (0.2–0.4 μM) or crude cell lysate (0.25–0.5 μg of protein) was incubated with PS (50 μM) for 45 min at 30 °C in the dark with shaking under the conditions described above for PE determination. PSD activity was measured by determining the PE produced as described above, except that the signal obtained in the absence of substrate PS (representing endogenous PE) was subtracted from the signal obtained in the presence of PS.
Human recombinant SMAC (10339‐H08E) was produced by Sino Biologicals (Wayne, PA, USA). […]

Broadly, the IC50 is the point on the concentration scale where inhibition reaches its midpoint.

B1: SMAC: Human recombinant SMAC (10339‐H08E) produced by Sino Biologicals (protein)
chain: LCVPVVANFKKRCFSELIRPWHKTVTIGFGVTLCAVPIAQKSEPHSLSSEALMRRAVSLVTDSTSTFLSQTTYALIEAITEYTKAVYTLTSLYRQYTSLLGKMNSEEEDEVWQVIIGARAEMTSKHQEYLKLETTWMTAVGLSEMAAEAAYQTGADQASITARNHIQLVKLQVEEVHQLSRKAETKLAEAQIEELRQKTQEEGEERAESEQEAYLRED
modifications: fluorescently labelled with the NanoTemper Protein labelling kit BLUE (in the MST with PSD only)
notes: Human recombinant SMAC (10339‐H08E) produced by Sino Biologicals
Take B1: the IC50 came to 0.4 µM.

The values above are taken from PMC8564633, “SMAC/Diablo controls proliferation of cancer cells by regulating phosphatidylethanolamine synthesis” (Molecular Oncology, 2021).
